{
  "source": "patent US7727950",
  "proteins": {"B1": {"name": "rat Rho-dependent protein kinase ROCKII[1-543] (protein)", "chain": "MSRPPPTGKMPGAPEAAAGDGAGAGRQRKLEALIRDPRSPINVESLLDGLNSLVLDLDFPALRKNKNIDNFLNRYEKIVKKIRGLQMKAEDYDVVKVIGRGAFGEVQLVRHKASQKVYAMKLLSKFEMIKRSDSAFFWEERDIMAFANSPWVVQLFCAFQDDRYLYMVMEYMPGGDLVNLMSNYDVPEKWAKFYTAEVVLALDAIHSMGLIHRDVKPDNMLLDKHGHLKLADFGTCMKMDETGMVHCDTAVGTPDYISPEVLKSQGGDGYYGRECDWWSVGVFLFEMLVGDTPFYADSLVGTYSKIMDHKNSLCFPEDTEISKHAKNLICAFLTDREVRLGRNGVEEIKSASFFKNDQWNWDNIRETAAPVVPELSSDIDSSNFDDIEDDKGDVETFPIPKAFVGNQLPFIGFTYFRENLLLSDSPPCRENDAIQTRKSEESQEIQKKLYALEEHLSSEVQAKEELEQKCKSINTRLEKTAKELEEEITFRKNVESTLRQLEREKALLQHKNAEYQRKADHEADKKRNLENDVNSLKDQLEDL"}, "B2": {"name": "p38 regulated/activated kinase (PRAK) (protein)", "chain": "MSEESDMDKAIKETSILEEYSINWTQKLGAGISGPVRVCVKKSTQERFALKILLDRPKARNEVRLHMMCATHPNIVQIIEVFANSVQFPHESSPRARLLIVMEMMEGGELFHRISQHRHFTEKQASQVTKQIALALRHCHLLNIAHRDLKPENLLFKDNSLDAPVKLCDFGFAKIDQGDLMTPQFTPYYVAPQVLEAQRRHQKEKSGIIPTSPTPYTYNKSCDLWSLGVIIYVMLCGYPPFYSKHHSRTIPKDMRRKIMTGSFEFPEEEWSQISEMAKDVVRKLLKVKPEERLTIEGVLDHPWLNSTEALDNVLPSAQLMMDKAVVAGIQQAHAEQLANMRIQDLKVSLKPLHSVNNPILRKRKLLGTKPKDSVYIHDHENGAEDSNVALEKLRDVIAQCILPQAGKGENEDEKLNEVMQEAWKYNRECKLLRDTLQSFSWNGRGFTDKVDRLKLAEIVKQVIEEQTTSHESQ"}, "B3": {"name": "Checkpoint Kinase 1 (CHK1) (protein)", "chain": "MAVPFVEDWDLVQTLGEGAYGEVQLAVNRVTEEAVAVKIVDMKRAVDCPENIKKEICINKMLNHENVVKFYGHRREGNIQYLFLEYCSGGELFDRIEPDIGMPEPDAQRFFHQLMAGVVYLHGIGITHRDIKPENLLLDERDNLKISDFGLATVFRYNNRERLLNKMCGTLPYVAPELLKRREFHAEPVDVWSCGIVLTAMLAGELPWDQPSDSCQEYSDWKEKKTYLNPWKKIDSAPLALLHKILVENPSARITIPDIKKDRWYNKPLKKGAKRPRVTSGGVSESPSGFSKHIQSNLDFSPVNSASSEENVKYSSSQPEPRTGLSLWDTSPSYIDKLVQGISFSQPTCPDHMLLNSQLLGTPGSSQNPWQRLVKRMTRFFTKLDADKSYQCLKETCEKLGYQWKKSCMNQVTISTTDRRNNKLIFKVNLLEMDDKILVDFRLSKGDGLEFKRHFLKIKGKLIDIVSSQKIWLPAT"}, "B4": {"name": "AMP-activated protein kinase (AMPK) (protein)", "chain": "MAEKQKHDGRVKIGHYVLGDTLGVGTFGKVKIGEHQLTGHKVAVKILNRQKIRSLDVVGKIKREIQNLKLFRHPHIIKLYQVISTPTDFFMVMEYVSGGELFDYICKHGRVEEVEARRLFQQILSAVDYCHRHMVVHRDLKPENVLLDAQMNAKIADFGLSNMMSDGEFLRTSCGSPNYAAPEVISGRLYAGPEVDIWSCGVILYALLCGTLPFDDEHVPTLFKKIRGGVFYIPEYLNRSIATLLMHMLQVDPLKRATIKDIREHEWFKQDLPSYLFPEDPSYDANVIDDEAVKEVCEKFECTESEVMNSLYSGDPQDQLAVAYHLIIDNRRIMNQASEFYLASSPPTGSFMDDMAMHIPPGLKPHPERMPPLIADSPKARCPLDALNTTKPKSLAVKKAKWHLGIRSQSKPYDIMAEVYRAMKQLDFEWKVVNAYHLRVRRKNPVTGNYVKMSLQLYLVDNRSYLLDFKSIDDEVVEQRSGSSTPQRSCSAAGLHRPRSSVDSSTAENHSLSGSLTGSLTGSTLSSASPRLGSHTMDFFEMCASLITALAR"}, "B5": {"name": "MAPKAP-K3 (protein)", "chain": "MDGETAEEQGGPVPPPVAPGGPGLGGAPGGRREPKKYAVTDDYQLSKQVLGLGVNGKVLECFHRRTGQKCALKLLYDSPKARQEVDHHWQASGGPHIVCILDVYENMHHGKRCLLIIMECMEGGELFSRIQERGDQAFTEREAAEIMRDIGTAIQFLHSHNIAHRDVKPENLLYTSKEKDAVLKLTDFGFAKETTQNALQTPCYTPYYVAPEVLGPEKYDKSCDMWSLGVIMYILLCGFPPFYSNTGQAISPGMKRRIRLGQYGFPNPEWSEVSEDAKQLIRLLLKTDPTERLTITQFMNHPWINQSMVVPQTPLHTARVLQEDKDHWDEVKEEMTSALATMRVDYDQVKIKDLKTSNNRLLNKRRKKQAGSSSASQGCNNQ"}, "B6": {"name": "serum and glucocorticoid-induced kinase 1 (SGK1[S422D] and lacking the N-terminal 59 residues) (protein)", "chain": "ISQPQEPELMNANPSPPPSPSQQINLGPSSNPHAKPSDFHFLKVIGKGSFGKVLLARHKAEEVFYAVKVLQKKAILKKKEEKHIMSERNVLLKNVKHPFLVGLHFSFQTADKLYFVLDYINGGELFYHLQRERCFLEPRARFYAAEIASALGYLHSLNIVYRDLKPENILLDSQGHIVLTDFGLCKENIEHNSTTSTFCGTPEYLAPEVLHKQPYDRTVDWWCLGAVLYEMLYGLPPFYSRNTAEMYDNILNKPLQLKPNITNSARHLLEGLLQKDRTKRLGAKDDFMEIKSHVFFSLINWDDLINKKITPPFNPNVSGPNDLRHFDPEFTEEPVPNSIGKSPDSVLVTASVKEAAEAFLGFDYAPPTDSFL"}, "B7": {"name": "p70 ribosomal S6 kinase 1 (S6K1[T412E], lacking the C-terminal 104 residues) (protein)", "chain": "MRRRRRRDGFYPAPDFRDREAEDMAGVFDIDLDQPEDAGSEDELEEGGQLNESMDHGGVGPYELGMEHCEKFEISETSVNRGPEKIRPECFELLRVLGKGGYGKVFQVRKVTGANTGKIFAMKVLKKAMIVRNAKDTAHTKAERNILEEVKHPFIVDLIYAFQTGGKLYLILEYLSGGELFMQLEREGIFMEDTACFYLAEISMALGHLHQKGIIYRDLKPENIMLNHQGHVKLTDFGLCKESIHDGTVTHTFCGTIEYMAPEILMRSGHNRAVDWWSLGALMYDMLTGAPPFTGENRKKTIDKILKCKLNLPPYLTQEARDLLKKLLKRNAASRLGAGPGDAGEVQAHPFFRHINWEELLARKVEPPFKPLLQSEEDVSQFDSKFTRQTPVDSPDDSTLSESANQVFLGFEYVAPSVLES"}, "B8": {"name": "cGMP-dependent protein kinase (PKG) (protein)", "chain": "SELEEDFAKILMLKEERIKELEKRLSEKEEEIQELKRKLHKCQSVLPVPSTHIGPRTTRAQGISAEPQTYRSFHDLRQAFRKFTKSERSKDLIKEAILDNDFMKNLELSQIQEIVDCMYPVEYGKDSCIIKEGDVGSLVYVMEDGKVEVTKEGVKLCTMGPGKVFGELAILYNCTRTATVKTLVNVKLWAIDRQCFQTIMMRTGLIKHTEYMEFLKSVPTFQSLPEEILSKLADVLEETHYENGEYIIRQGARGDTFFIISKGKVNVTREDSPNEDPVFLRTLGKGDWFGEKALQGEDVRTANVIAAEAVTCLVIDRDSFKHLIGGLDDVSNKAYEDAEAKAKYEAEAAFFANLKLSDFNIIDTLGVGGFGRVELVQLKSEESKTFAMKILKKRHIVDTRQQEHIRSEKQIMQGAHSDFIVRLYRTFKDSKYLYMLMEACLGGELWTILRDRGSFEDSTTRFYTACVVEAFAYLHSKGIIYRDLKPENLILDHRGYAKLVDFGFAKKIGFGKKTWTFCGTPEYVAPEIILNKGHDISADYWSLGILMYELLTGSPPFSGPDPMKTYNIILRGIDMIEFPKKIAKNAANLIKKLCRDNPSERLGNLKNGVKDIQKHKWFEGFNWEGLRKGTLTPPIIPSVASPTDTSNFDSFPEDNDEPPPDDNSGWDIDF"}, "B9": {"name": "protein kinase B alpha (PKBα) (protein)", "chain": "MDFRSGSPSDNSGAEEMEVSLAKPKHRVTMNEFEYLKLLGKGTFGKVILVKEKATGRYYAMKILKKEVIVAKDEVAHTLTENRVLQNSRHPFLTALKYSFQTHDRLCFVMEYANGGELFFHLSRERVFSEDRARFYGAEIVSALDYLHSEKNVVYRDLKLENLMLDKDGHIKITDFGLCKEGIKDGATMKTFCGTPEYLAPEVLEDNDYGRAVDWWGLGVVMYEMMCGRLPFYNQDHEKLFELILMEEIRFPRTLGPEAKSLLSGLLKKDPKQRLGGGSEDAKEIMQHRFFAGIVWQHVYEKKLSPPFKPQVTSETDTRYFDEEFTAQMITITPPDQDDSMECVDSERRPHFPQFSYSASGTA"}},
  "key": {"[1]": {"biological_target": "T1, generic peptide substrate RRRLSFAEPG", "T1 chain": "RRRLSFAEPG"}, "[2]": {"biological_target": "T2, standard peptide substrate KEAKEKRQEQIAKRRRLSSLRASTSKSGGSQK", "T2 chain": "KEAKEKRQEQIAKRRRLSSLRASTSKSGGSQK"}, "[3]": {"biological_target": "T3, generic peptide substrate RARTLSFAEPG", "T3 chain": "RARTLSFAEPG"}, "[4]": {"biological_target": "T4, standard peptide substrate KKLRRTLSVA", "T4 chain": "KKLRRTLSVA"}, "[5]": {"biological_target": "T5, standard peptide substrate KKKVSRSGLYRSPSMPENLNRPR", "T5 chain": "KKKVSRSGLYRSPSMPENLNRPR"}, "[6]": {"biological_target": "T6, standard peptide substrate HMRSAMSGLHLVKRR", "T6 chain": "HMRSAMSGLHLVKRR"}, "[7]": {"biological_target": "T7, standard peptide substrate KKLNRTLSVA", "T7 chain": "KKLNRTLSVA"}, "[8]": {"biological_target": "T8, generic peptide substrate KKLNRTLSFAEPG", "T8 chain": "KKLNRTLSFAEPG"}, "[9]": {"biological_target": "T9, standard peptide substrate GRPRTSSFAEG", "T9 chain": "GRPRTSSFAEG"}, "[10]": {"biological_target": "T10, standard peptide substrate LRRASLG", "T10 chain": "LRRASLG"}},
  "data": [
    {"protein": "B1", "values": [
      {"measurement": "Km", "setting": "[1]", "value": "> 100", "unit": "µM"},
      {"measurement": "Km", "setting": "[2]", "value": 5, "unit": "µM"}
    ]},
    {"protein": "B2", "values": [
      {"measurement": "Km", "setting": "[3]", "value": 40, "unit": "µM"},
      {"measurement": "Km", "setting": "[4]", "value": "> 100", "unit": "µM"}
    ]},
    {"protein": "B3", "values": [
      {"measurement": "Km", "setting": "[3]", "value": 5, "unit": "µM"},
      {"measurement": "Km", "setting": "[5]", "value": 5, "unit": "µM"}
    ]},
    {"protein": "B4", "values": [
      {"measurement": "Km", "setting": "[3]", "value": 75, "unit": "µM"},
      {"measurement": "Km", "setting": "[6]", "value": 80, "unit": "µM"}
    ]},
    {"protein": "B5", "values": [
      {"measurement": "Km", "setting": "[3]", "value": 30, "unit": "µM"},
      {"measurement": "Km", "setting": "[7]", "value": 18, "unit": "µM"}
    ]},
    {"protein": "B6", "values": [
      {"measurement": "Km", "setting": "[8]", "value": 4, "unit": "µM"},
      {"measurement": "Km", "setting": "[9]", "value": 4, "unit": "µM"}
    ]},
    {"protein": "B7", "values": [
      {"measurement": "Km", "setting": "[8]", "value": 6, "unit": "µM"},
      {"measurement": "Km", "setting": "[10]", "value": 8, "unit": "µM"}
    ]},
    {"protein": "B8", "values": [
      {"measurement": "Km", "setting": "[1]", "value": 50, "unit": "µM"},
      {"measurement": "Km", "setting": "[2]", "value": 5, "unit": "µM"}
    ]},
    {"protein": "B9", "values": [
      {"measurement": "Km", "setting": "[8]", "value": 2, "unit": "µM"},
      {"measurement": "Km", "setting": "[9]", "value": 4, "unit": "µM"}
    ]}
  ]
}
